In PMC6692130, “PHLPP1 counter-regulates STAT1-mediated inflammatory signaling” (eLife, 2019):

Molecular target: T1, HA-tagged PHLPP1 N-terminal extension (PHLPP1 NTE), residues 1-512 (UniProt O60346 1-512)
T1 construct: PH domain Leucine-rich repeat Protein Phosphatase 1 (PHLPP1), N-terminal extension, residues 1-512 of the 1717-residue protein; also called HA-NTE; pCDNA3 HA PHLPP1 NTE-WT; source: HEK-293T, transfected, in lysate; not shown: HA, N-terminal, kept
T1 sequence (looked up): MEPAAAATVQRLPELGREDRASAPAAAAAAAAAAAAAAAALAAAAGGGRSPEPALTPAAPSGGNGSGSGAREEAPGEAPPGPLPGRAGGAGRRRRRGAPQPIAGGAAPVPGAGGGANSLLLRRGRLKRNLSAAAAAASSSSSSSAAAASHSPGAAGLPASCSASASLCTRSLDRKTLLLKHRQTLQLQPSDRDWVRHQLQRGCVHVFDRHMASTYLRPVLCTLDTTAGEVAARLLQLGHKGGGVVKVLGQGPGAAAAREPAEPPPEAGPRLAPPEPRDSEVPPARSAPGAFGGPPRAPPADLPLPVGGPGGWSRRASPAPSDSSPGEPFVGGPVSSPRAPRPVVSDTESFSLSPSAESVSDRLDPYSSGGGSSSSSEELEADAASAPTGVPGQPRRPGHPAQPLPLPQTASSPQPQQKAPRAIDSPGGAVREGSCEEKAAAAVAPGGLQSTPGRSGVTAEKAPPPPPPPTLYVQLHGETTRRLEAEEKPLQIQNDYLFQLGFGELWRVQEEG
Assay: co-IP; HEK-293T cells transfected with HA-tagged PHLPP1 constructs and GFP-STAT1; detergent-solubilized lysates incubated with anti-HA antibody at 4°C overnight, protein A/G agarose 1 hr at 4°C, washed three times in lysis buffer with 0.3 M NaCl and 0.1% Triton X 100; blot probed with GFP antibody; GFP-STAT1 IP divided by HA IP, normalized to HA-NTE IP, three independent experiments
Details: partners not purified

B1: GFP-STAT1 (natural protein, UniProt P42224 1-750, looked up)
chain: MSQWYELQQLDSKFLEQVHQLYDDSFPMEIRQYLAQWLEKQDWEHAANDVSFATIRFHDLLSQLDDQYSRFSLENNFLLQHNIRKSKRNLQDNFQEDPIQMSMIIYSCLKEERKILENAQRFNQAQSGNIQSTVMLDKQKELDSKVRNVKDKVMCIEHEIKSLEDLQDEYDFKCKTLQNREHETNGVAKSDQKQEQLLLKKMYLMLDNKRKEVVHKIIELLNVTELTQNALINDELVEWKRRQQSACIGGPPNACLDQLQNWFTIVAESLQQVRQQLKKLEELEQKYTYEHDPITKNKQVLWDRTFSLFQQLIQSSFVVERQPCMPTHPQRPLVLKTGVQFTVKLRLLVKLQELNYNLKVKVLFDKDVNERNTVKGFRKFNILGTHTKVMNMEESTNGSLAAEFRHLQLKEQKNAGTRTNEGPLIVTEELHSLSFETQLCQPGLVIDLETTSLPVVVISNVSQLPSGWASILWYNMLVAEPRNLSFFLTPPCARWAQLSEVLSWQFSSVTKRGLNVDQLNMLGEKLLGPNASPDGLIPWTRFCKENINDKNFPFWLWIESILELIKKHLLPLWNDGCIMGFISKERERALLKDQQPGTFLLRFSESSREGAITFTWVERSQNGGEPDFHAVEPYTKKELSAVTFPDIIRNYKVMAAENIPENPLKYLYPNIDKDHAFGKYYSRPKEAPEPMELDGPKGTGYIKTELISVSEVHPSRLQTTDNLLPMSPEEFDEVSRIVGSVEFDSMMNTV
notes: STAT1, detected in the co-IP by its GFP tag; the methods give no source or limits for it; source: HEK-293T, transfected, in lysate
- fold binding against PHLPP1 lacking the NTE: ~26 fold
- fold binding against full-length PHLPP1: ~5 fold
